Measured values published in the RNAGym collection of RNA variant scans (doi:10.1073/pnas.2313332121).

B1: TPR t1 (parent)
chain: GACCAAUCUGCCCUCAGAGCUCGAGAACAUCUUCGGAUGCAGAGGAGGCAGGCUUCGGUGGCGCGAUAGCGCCAACGUCCUCAACCUCCAAUGCAUCCCACCACAUGAUGAUGCCUGAAGAGCCUUGGUUUUUUG

Variants of: B1
Assay: polymerase ribozyme fitness, log enrichment relative to wild type (log ratio); higher = more active; in vitro selection for triplet polymerase activity
Summary of the method: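 Streptavidin-bead capture of gel-excised extended constructs, followed by RT-PCR, closed a single triplicate in vitro selection round. That round began by annealing PCR-built, transcribed mutant libraries of each subunit of a heterodimeric triplet polymerase ribozyme with a biotinylated primer, the partner subunit and triplets, then incubating them frozen at −7 °C. After Illumina sequencing of inputs and outputs, genotypes needed ≥10 input reads and ≥1 read per output. Fitness is the base-2 logarithm of genotype enrichment over wild-type enrichment, using inverse-variance-weighted replicate averages.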

| Variant | polymerase ribozyme fitness (log ratio) |
| --- | --- |
| GACCAAUCUGCCCUGAGAGCUCGAGAACAUCUUCGGAUGCAGAGGAGGCAGGCUUCGGUGGCGCGAUAGCGCCAACGUCCUGAACCUCCAAUGCAUCCCACCACAUGAUGAUGCCUUAAGAGCCUUGGUCUUUUG | -0.86 |
| GACCAAUCUGCCCUCAGAGCUCGAGAACAUCUUCGGAUGCAGAGGAGGCAGGCUUCGGUCGCGCGAUAGCGCCAACGUCCUCAACCUCCAAUGCAUCCCACCACAUGAUGAUGCAUGAAGAGCCUUGGUUUUUUG | 0.199 |
| GACCAAUCUGCCCUCAGAGCUCGAGAACAUCUUCGGAUGCAGAGGGGGCAGGCUUCGGUGGCGCGAUAGCACCAACGUCAUCAACCUCCAAUGCAUCCCACCACAUGAUGAUGCCUGAAGAGCCUUGGCUUUUUG | -5.8 |
| GACCAAUCUGUCCUCAGCGCUCGAGAACAUCUUCGGAUGCAGAGGAGGCAGGCUUCGGUGGCGCGAUAGCGCCAACGUCCUAAACCUCCAAUGCAUCCCACCAUAUGAUGAUGCCUGAAGAGCCUUGGUUUUUUG | -2.34 |
| GACCAAUCUGCCCUCAGAGCUCGAGAACAUCUUCGGAUGCAGAGGAGGCAGGCUUCGGUGGCGCGAUAGCGCCAACGUCCUCAACCUCCAAUGCAUCCCACAACAUGAUGAAGCAGGAAGAGCGUUGGUUUUCUG | -3.77 |
| GACCAAUCUGCCCUCAGAGCUCGAGAACAUCUUCGGAUGCAGAGGAGGCAGGCUUCGGUGGCGCGAUACCGCCAACGUCCUCAACUUCCAAUGCAUCCCACCACAUGAUGAUGCCUGAAGAGCCUUGGUUUUUUG | -1.37 |
| GACCAAUCUGCCCUCAGAGCUCGAGAACAUCUUCGGAUGCAGAGGAGGCAGGCUUCGGUGGCGCGAUAGUGCCAACGUCCUCAACCUCCAAUGUAUCCCACCACAUGAUGAAGCCUGAAGAGCCUUGGUUUUUUG | 0.254 |
| GACCAAUCUGCCCUCAGAGCUCGAGAACAUCUUCGGAUGCAGAGGAGGCAGGCUUCUGUUGCGCGAUAGCGCCAACGUCCUCAACCUCCAAUGCAUCCCACCACAUGAUGAUGCCUGAAGAGUCUUGGUUUUUUG | 0.317 |
| GACCAAUCUGCCCUCAGAGCUCGAGAACAUCUUCGGAUGCAGAGGAGGCAGACUUCGGUGGCGCGAUAGCGCCAACGUCCUCAACCUCCAAUGCAUCCCACCACAUGAUGCUGCCUGAAGAGCCUUGGUUUUUUG | 0.197 |
| GCCCAAUCUGCCCUCAGAGCUCGAGAACAUCUUCGGAUGCAGAGGAGGCAGGCUUCGGUGGCGCGAUAGCGUCAACGUCCUCAACCUCCAAUGCAUCCCACCACAUGAUGAUGCCUAAAGAGCCUUGGUUUUUUG | -3.25 |
| GACCAAUCUGCCCUCAGAGCUGGAGCACAUCUUCGGAUGCAGAGGAGGCAGGCUUCGGUGGCGCGAUAGCGCCAACGUCCUCAACCUCCAAUGCAUCCCACCACAUGAUUAUGCCUGAAGAGCCUUGGUUUUUUG | -6.02 |
| GACCAAUCUGCCCUCAGAGCUCGAGAACAUCUUCGCAUGCAGAGGAGGCCGGCUUCGGAGGCGCGAUAGCGCCAACGUCCUCAACCUCCAAUGCAUCCCACCACAUGAUGAUGCCUGUAAAGCCUUGGUUUUUUG | -0.713 |
| GAGCAAUCUGCCCUCAGAACUCGAGAACUUCUUCGGAUGCAGAGGAGCCAGGCUUCGGUGGCGCGAUAGCGGCAACGUCCUCAACCUCCAAUGCAUCCCACCACAAGAUCAUGGCUGAAGAGCCUUGGUUUUUUG | -7.4 |
| GACCACUCUGCCCUCAGAGCUCGAGAACAUCUUCGGAUGCAGAGGAGGCAGGCUUCGGUGGCGCGAUAGCGCCAACGUCCUCAACCUCCAAUGCAUCCCACCACAUGAUGAUGCCUGAAGUGCCUUGGUUUUUUG | 1.95 |
| GACCAAUCUGCCCUCAGAGCUCGAGAACAUCUUCGGAUGCAGAGGAGGCAGGCUUCGGUGGCGCGAUAGCGCCAACGCCCUCAACCUCCAAUGCAUCCCACAACAUGAUGAUGCCUCAAGAGCCUUGGUUUUUUG | -6.34 |
| GACCAAUCUGCCCUCAGAGCUCGAGAACAUCUUCGGAUGCAGAGAAGGCAGGCUUCGGUGGCGCGAUAGCGCCAACGUCCUCAACCUCCAAUGCAUCUCACCACAAGAUGAUGCCUGAAGAGCCUUGGUUUUUUG | -1.28 |
| GACCAAUCUGCCCUCAGAGCUCGAGAACAUCUUCGGAUGCAGAGGAGGCAGGCUUCGGUGGUGCGAUAGCGCCAACGUCCUCAACCUCCAAUGCAUCCCACCAUAUGAUGAUGCCUGAAGAGCCUUGGUUUUUUG | 0.0133 |
| GACCAAUCAGCCCUCAGAGCUCGAGACCAUCUUCGGAUGCAGAGGAGGCAGGCUUCGGUGGCGCGAUAGCGCCAACGUCCUCAACCUCCAAUGCAUCCCACCACAUGAUGAUGCCUCAAGAGCCUUGGUUUUUUG | -5.71 |
| GACCAAUCUUCCCUCAGAGCUCGAGAACAUCUUCGGAUGCAGAGAAGGCAGGCUUCGGUGGCGCGAUAGCGCCAACGACCUCAACCUCCAAUGCAUCCCUCCACAUGAUGAUGCCUGAAGAGCCUUGGUUUUUUG | -1.09 |
| GACCAAUCUGCCCUCAGAGCUCGAGAACAUCUUCGGAUGCAGAGGAGGCAGGCUUUGGUGGCGCGAUAGCGCCAACGUCCUCAACCUCCAAUGCAACCCACCACAUGAUGAUGCCUGAAGAGCCUUGGUUUUUUG | -1.14 |
| GACCAACCUGCCCUCAGAGCUUGAGAACAUCUUCGGAUGCAGAGGAGGCAGGCUUCGGUGGCGUGAUAGCGCCAACGUCCUCAACCUUCAAUGCAUCCCACCACAUGAUGAUGCCUGAAGAGUCUUGGUUUUUUG | -2.65 |
